For this assay, the target named is bovine pancreatic ribonuclease A (bovine) (UniProt P61823). In words: SEC; size of the SA-2 peak from stored N-swapped oligomers, estimated from its elution volume against the calibration curves of the Superdex columns; estimate only.

As for “bovine pancreatic ribonuclease A (from UniProt P61823 27-150) (enzyme)”, the stoichiometry N (RNase A units) is 180.

These data come from publication PMC9569824.
